In the DeepSol protein solubility set:

Test: soluble on expression in E. coli; label from the status in PepcDB or PDB records

Sequence	soluble on expression in E. coli
MGSDKIHHHHHHMQQAIEQTATGGALRFNGICKVFPGVKALSDISFEARPGSVHALMGENGAGKSTLLKILGGSYQPNSGTLQIGEHSYQFKSTAESIAAGVAVIHQELHLVPEMTVAENLLLGHMPNRFGLINRGAMYRRAGELLKGLADEIDPRTRLGDLSLGQRQLVEIAKAMSRNAHVIAFDEPTSSLSAREIDRLMAIIVRLRDEGRVILYVSHRMEEIFRVCDAVTVFKDGRFVKTFEQMADLDHDRLVTCMVGRDIQDIYNYRPRQHQGPSLRVTGLLGLGLQEPVSFAVQKGEVLGFFGLVGAGRTELFRILSGLTRSTAGSLQLDGQPLTLKSPRDAIAAGVLLCPEDRKKEGIVPLSSVAENINIGARPRHVNLGCLIQGGWERDNARAQIKSMNVKTPSPEQQIMFLSGGNQQKAILGRWLSMPMKVLLLDEPTRGIDVGAKSEIYEIIHTLAADGIAVIVVSSDLMEVMGISDRILVMSEGAITGELNRDEADESRLLQLALPRTRG	not soluble
MSEFSQTALFPSLPRTARGTAVVLGNTPAGDKIQYCNGTSVYTVPVGSLTDTEIYTEHSHQTTVAKTSPSGYYCASGDVHGNVRIWDTTQTTHILKTTIPVFSGPVKDISWDSESKRIAAVGEGRERFGHVFLFDTGTSNGNLTGQARAMNSVDFKPSRPFRIISGSDDNTVAIFEGPPFKFKSTFGEHTKFVHSVRYNPDGSLFASTGGDGTIVLYNGVDGTKTGVFEDDSLKNVAHSGSVFGLTWSPDGTKIASASADKTIKIWNVATLKVEKTIPVGTRIEDQQLGIIWTKQALVSISANGFINFVNPELGSIDQVRYGHNKAITALSSSADGKTLFSADAEGHINSWDISTGISNRVFPDVHATMITGIKTTSKGDLFTVSWDDHLKVVPAGGSGVDSSKAVANKLSSQPLGLAVSADGDIAVAACYKHIAIYSHGKLTEVPISYNSSCVALSNDKQFVAVGGQDSKVHVYKLSGASVSEVKTIVHPAEITSVAFSNNGAFLVATDQSRKVIPYSVANNFELAHTNSWTFHTAKVACVSWSPDNVRLATGSLDNSVIVWNMNKPSDHPIIIKGAHAMSSVNSVIWLNETTIVSAGQDSNIKFWNVPF	soluble
MAHHHHHHMTDMELVEALNATEVPIARAVFLMISAVQDADAGDNKTWSCCHPDRSPAASPGSTTGWRSLRESPSGPAVIEVCYNDGADSFLTVKWVPMDKTHLVMITQRSDRERSHQPLNTSFCIEDEPLASLVLGQQTGSGASAAAMWTAESLGSALHRLRCLLQSAIGNTGRGSEQNEKFSAAQDSDCGRELPSPRRRNLVILNSTAVDPPLLLPLPCLPKAVCYLREWSRVLPAPVTAKRISSPVVEVLVWVAA	soluble
MNSQTTKDIPCFRSYLPDALRLRFEDKLTIRAIAQRLGLSHSTIHTLFQRFLASGIAWPLPDSVSFAQLDAILYANRKKELTEPQIREGSWRKERRTSYSREFKVRLAKQALQPGAVVARIAREHDINNNLLFKWKSQYEDGLLSDDDIQECMPVPVALTDTPEPTRPVTNPFWRNKHDERPEGAPGNVPRCELHLKSGVVKLFDPLTPELLRALIREMKGGIRLEHHHHHH	not soluble
MFDKLKENEELWDLFTRKEEYSVTFRDAYERFPYYLSSHRNIFEPRVSKFLVENGLKPQYPDGKKFAVCLTHDIDAIYPDKLYPIVGPVKALSRGKLAEAVKAPFSRVNRKWNPCWNFREILALEAKYNAKSSFYFLALTSEETDFNYNIKDLETELGFISDSGWEVGLHGGHESYNSLEDIKEKKRRLEEVLGKKVVGYRNHYLRFRVPDTWELLSKAGFKYDTTFGYSDCAGFRNGMCHPYRPFNLNEGRQIDILEIPLVIMDRSLLKDYMRLNVKKAWECTKHLINTVEKYNGVITILWHNNMCIDGENLRYYEKVLEYCAEKNAWITSGEEIYNWWTSKIEPGNLEHHHHHH	not soluble
RAKGRFFYDKTSSQQPAIIVLSGSDGRIEKAQNIAQLLASHGFTTLALAYFGLEGLASHLEKIPLEIIQEAIDYLKKSPYADSIRLGLYGRSKGAEFALLAASHYADFKCLVLNSPSYLCLEGLKQWRNSKTSSWTYQGQELPYHPFLWKDFFQRLILKKDLKNINHQAVIPVEKINGSLLLLVSKKDEVWDAYGSAITIVNRLQQKRFKYPYQVESYENCGHMMTVAYQPNHRYKKVALEKIMADTNDSWQKTL	not soluble
MGSDKIHHHHHHAMDNYDYETVVTLIEPDCQDSLLLITKAQALKAMNRYPEAIGVLNSLILKDSTNTKVLIDLAECYKLTGNSRRAANCYQKAMNLQPENKFFRLQFIRSLLASEDYEEARTACHGWLERDSLSATGYKYLGQAYEGLQDAASAFLSYNIAYRRDSLDAQTVARIAGIFNNNQQFKDAVDVTEVYRLSDTTNIDVNRQNAKAYCMLKEYGTAVKRYESLKELGDRSFLTLYYLGVSHYGDNWFYGAYDNLKEAYQKNPMDVNVLYYLAKASARTSWKKEGVEYMEEAFRIAVPSDSMMVRLYDGLVECYDYAGDTKKEVEALEKLYIYTKKNSILYKIACLYDWKEDEKNAIRYYRKYMATVSEDQRYALDEDGNPVEDRITLYQQAWKRIKKIKEEGFFRGDIPTKSFPVEKKDTLALRHAK	not soluble
MGSDKIHHHHHHLAAEIIAVTQQKGGVGKSTIAMHLGAAFHEKGKRVLVVDADGQNTLIHWASASSDGDTGIPFPVVNLSEAGSQIHREIKKFVADYDIIVVDCPPSITEKVSGVVLLAASVAVIPTSSSPADYWSSIGLVKLVQQAQLMNEDLRAVFLLNKTEEKRMLTRELKRALEELGFPLLKTQIPTREAYKQAMALGQTVLQMNDRGAKLAAIEVRACANEIAALLP	not soluble
MYCKPHRPGNTPQVPDNKGKCTRLVDYLSKESQVERPYYDNFFSQQKDYVIPLTVKNHIDNNHRTLKSNDDKFYMLSINPSGDEQRHLIERVTGRKVGEFSELTPGEQESVLAQMKKFTRECMDEYARNFYREKIKSGDDLVWYGRVETERHYKNDDPEVKAGRVKAGDKKPGLQLHVHVIVSRMDRTQTVSLSPLSKSRGNRQILEGREVVVGFDRSQWSSRCASRFNQSYDYFPNYYSRDESLRKYSENWQAKNELKNEAVSKLKQEVLKGELKEERRLYANTFRIYRFVVNPRKAIIQELKRLGTDLLSGRDL	not soluble
MASTSTGLPPNWTIRVSRSHNKEYFLNQSTNESSWDPPYGTDKEVLNAYIAKFKNNGYKPLVNEDGQVRVSHLLIKNNQSRKPKSWKSPDGISRTRDESIQILKKHLERILSGEVKLSELANTESDCSSHDRGGDLGFFSKGQMQPPFEEAAFNLHVGEVSNIIETNSGVHILQRTG	soluble
MASMPSRTALSPGVLSPTRPVPNWIARPEYVGKPAAQEGSEPWVQTPEVIEKMRVAGRIAAGALAEAGKAVAPGVTTDELDRIAHEYLVDNGAYPSTLGYKGFPKSCCTSLNEVICHGIPDSTVITDGDIVNIDVTAYIGGVHGDTNATFPAGDVADEHRLLVDRTREATMRAINTVKPGRALSVIGRVIESYANRFGYNVVRDFTGHGIGTTFHNGLVVLHYDQPAVETIMQPGMTFTIEPMINLGALDYEIWDDGWTVVTKDRKWTAQFEHTLLVTDTGVEILTCL	soluble
MGSDKIHHHHHHMRIDIDAFNVLQVLVEEGSFAKASERLHKAQSAVSYQVKKLEQHLGVTLFNRDHYRAELTPEGKVILAEGQRLLQHLANIEHLASRFSQGWEPKLELVIDGALPMEPIMTALKRMSEHNIPTKVQLNMEFLGGVQHRFERDQADLMLVKDYRTGPSYHPKPLPTITSVLVASSQHPLSLLKEISLPELQQHVELTIEDSSPGKRDRDEMQFGGDKVFYLSGFIMKKNALLKGLGFGWMPDFLIAEELHQRQLIEVDFIGGNRFSFTPQLVSTLERPLGRAGQLFTELILEEFAQYQLQHQSGLSGAGLG	not soluble
MTEKGRAIEEESFRIVDQEAGPHGFSPLEWPVVRRMIHATADFEYKALTRFSQGAVEAGLKAIQAGARILVDARMIACGLNPERLRLFGNEVVELLAHPEVVARAKATGGTRAEAAVAYAWEKGLLDGAIVGVGNAPTFLLALVEAIRQGARPALVLGMPVGFVNVLEAKRALMEAPVPWIVTEGRKGGSTLVVAALHALIRLAADGGVDTSRAYREG	soluble
MKILKKIFQVIVKIINHCVPVDSRSLYFIPHPNCRTDKYDIINYSSDNVLVLLNYLLKKDSAEYYKIYVEIYDSSRISEYQEYIYGINPNIRCTFLCACVGRFFFNKVSFKDMLYAFFCFCRASKCFTATFYYDFSFKKRSQQIICLGYYTPFKDDYHMGDHSYDKFRNTTCNSFDYSIATSCLSARIISIDCGISYDKFKVLGFPRNDLLISKNNCNVIKREISKFAGYDVTKYIVYTPTFRDYETVTEGNLRSILGYVDCDLLKLSKILLKFNAALILKLHPLQNKTVLKKDLPKGILVFEQTYKYGLYDLLSFSDGMITDYTSTYFDFLLVNKPVIFNFYDIEEYRRVRGFSFEPIEFFCAGDIVYNYNELIDAVMGLLAGKDIHAEHRRHISLLMNQFQDDNSTKRICDIFLNEILEHHHHHH	not soluble
MGSDKIHHHHHHMITEELEVGYNVPATVGMDEADIQTPCLILDLDALERNVKKMGDYAKAHNMRHRSHGKMHKSVDVQNLQEELGGAIGVCCQKVSEAEVFVRGGIKDVLVSNQVRNPAKIERLANLPKLGSTITVCVDDIDNVAELSAAATKAGTELNCYIEIDCGAGRCGVTTTEAVVEIAKAIDAAENLKFTGIQAYQGAMQHMDSFSDRKAKTQIAIDQVQEAIDALTEIGLKPEFVSGGGTGSYYFESNSGVFNELQCGSYAFMDADYGRILDEDGNRIDAGEWENALFILTSVMSHAKADKAIVDAGLKAQSVDSGLPFVYGRDDVEYVKCSDEHGVVSDPNGVLEINEKLKLVPGHCDPTCNVHDFYIGVRNGKVETVWPVSARGKMY	not soluble
MSGKRKLEDYKSIIGEEEVSKIQEKAEKLKGRSFVHVNSTSFGGGVAEILHSLVPLLRSIGIEARWFVIEGPTEFFNVTKTFHNALQGNESLKLTEEMKELYLNVNRENSKFIDLSSFDYVLVHDPQPAALIEFYEKKSPWLWRCHIDLSSPNREFWEFLRRFVEKYDRYIFHLPLEHHHHHH	not soluble
SLEIERINEHTVKFYMSYGDIEDRGFDREEIWYNRERSEELFWEVMDEVHEEEEFAVEGPLWIQVQALDKGLEIIVTKAQLSKDGQKLELPIPEDKKQEPASEDLDALLDDFQKEEQAVNQEEKEQKLQFVLRFGDFEDVISLSKLNVNGSKTTLYSFENRYYLYVDFCNMTDEEVENQLSILLEYATESSISIHRLEEYGKLIISEHALETIKKHFAS	soluble
MGSDKIHHHHHHMSSDIHLAFAHPSERSAATARPGALDRISLRDHIVEVEIGAFQQERGTTQRVCFNVVVEIAPLPADLDDDVDRILSYDKVTEAIAHELARERLALLETLAERVAERILWEPQAVRAFVRIEKLDRGPGKLGVEIVRSADQVSHEADEDVKPHPRLMFLSNAAIDSDNLTGWIDQMECRERPLILCVGAHDLALPQTGHKWTQRRIDLLAIEQNAWRLAARDSRCKVVETRTELDWAMKNGQICVWAPSKIVLDAVEGPSEPPSNAVALAAWFASTFEAEEMIVIGAELPENPGVPLRAHAEEQHTL	not soluble
MENNNGFADMADYLGKLSQVDATKLSIESLTAAANFYMEKLLPNIPKSLLKKKHMVDQVKVNIKDNEVQVAFEDTAFYWRFAENGTVNQKAQHFASGTFEQNKDQIEKIMTQQILDLWKG	soluble
GIVNVPNPNNTKFQELARFAIQDYNKKQNAHLEFVENLNVKEQVVAGIMYYITLAATDDAGKKKIYKAKIWVKEWEDFKKVVEFKLV	soluble
MGSDKIHHHHHHMNKHIASMLLGALLLNVGCSAIMSEKGFITQDKQVTQFNTEYIEKLAQSLPQHMVNQISIDGDEQVSLKGLFIDNPNSHTLVFFIQGNGMKVDPDSLAVLLTLSQLGTDIAIFDRRGLGASNGQATIANLLTDAIQELTFIRHTYQPDKVIVHGYSLGSFIAAQLVKNQAADALVMQGSATNVDDWIATKIPWYMPFLTVETPESFKLVDNQEVVSKFYQGPLMVIGAEKDDQVPAELSEKLFLASQSKIKSLIIVPKANHGEMLNSAKTMQAYREFLARI	not soluble
